Measurements as given in the nanobody polyreactivity screen of Harvey et al. (2022).

assay: yeast display, Sf9 membrane polyspecificity reagent, FACS + sequencing; frameworks hold sequencing errors
Method in brief: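 Polyreactivity labels are assigned by the sorting gate from which each nanobody was recovered. The gates were low and high (top ~1%), set on anti-HA fluorescence for expression and streptavidin fluorescence for reagent binding. Before sorting, galactose-induced (36–48 hours) yeast display cells were stained for 1 hour at 4 °C with 10% biotinylated, detergent-solubilized Sf9 membrane reagent.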

Sequence	polyreactivity (PSR sort gate)
QVQLVESGGGLVQAGGSLRLSCAASGSTFKLYAMGWYRPAPGKERELVAAISYRGGTTYYADSVKGRFTISRDNAKNSVYLQMNSLKPEDTAVYYCAAGWRPRYLRDASKYDYWGQGTQVTVSS	low polyreactivity
QVQLVESGGGLVQAGGSLRLSCAASGRIFLSNAMGWYRQAPGKERELVAAISLSGGRTYYADSVKGRFTISRDNAKNTVYLQMNSLKPEDTAVYYCAAEFYPIRYYGRYDYWGQGTQVTVSS	low polyreactivity
QVQLVETGGGLVQAGGSLRLSCAASGSIAFNAMGWYTQAPGKERELVAAITWRVGSTYYADSVKGRFTISRDNAMNTVDLQMHSLKTEDTAVYYCAARRTAGAYYGYNYWGQGTQVTVSS	high polyreactivity
QVHLVESGGGLVQAGGSLRLSCAASGYIFGYYAMGWYRQAPGKERELVAAISQGGGDTYYADSVKGRFTISRDNAKYTVYLQMNSLKPEDTAVYYCAADYEQSYVLTGTFKYDYWGQGTQVTVSS	low polyreactivity
QVQLVESGGGLVQAGGSLRLSCAASGLTFPRYAMGWYRQAPGIERELVAAISYRGSRTYYADSVKGRFTISRDNAKNTVYLQMNSLKPEDSAVYYCNKVRPGYGVTYLVGYWGQGTQVTVSS	high polyreactivity
QVQLVESGGGLVQAGGSLRLSCAASGSTFDPYGKGWYRQAPGKERELVATITYSSGSTSYADSVKGRFTISRDHAKNTVYLQMNSLKPEDTAVYYCAKKYYTGYGYWGQGTQVTVSS	low polyreactivity
QVQLVESGGGLVQAGGSLRLSCAASGIIIDYYTMGWYRQAPGKERELVAAINKSGGSTYADSVKGRFTISRDNAKNTVYLQMNSLKPEDTAVYYCAAEVDYSYSPEYARKYYYWGQGTQVTVSS	low polyreactivity
QVQLVESGGGLVQAGGSLRLICAASGATFYFYAMGWYREAPGKERELVAAISKRGTSTYYADSVKWRFTISRDNAKNTVYLQLTSLKPEDTAVYFCAADAPRGYNYWGQGTQVTVSS	high polyreactivity
QVQLVESGGGLVQAGGSIRLSCAASGRIFHLYAMGWYRQAPGKERELVAAISRGGDTYYADSVKGRFTISRDNAKNTVYLQMYSLKPEDTAVYYCAAGRWVYTVGYYPVGYYYWGQGTQVTVSS	high polyreactivity
HVHLVESGGGLVQAGGSLRLSCAASARTFWRYAMGRKRQAPGKERELVAAISVSGGTTYYADAVKGRFTISRDNAQNTVYLQMISLKPEATAVYYCAARYWHSYGYWGQGTQVTVSS	high polyreactivity
QVQLVESGGGLVQAGGRLRLSCAASGSTVVFNAMGWYRQAPGKERELVAAISKSGGSTYYADSVKGRFTISRDNAKNTVYLQMNSLKPEDTAVYYCNRVSRKILDGDYDYWGQGTQVTVSS	high polyreactivity
QVQLVESGGGLVQAGGSLSLSCAASGRTFGSYAMGWYRQAPGKERELVAAITGSGGSTYYADSVKGRFTISRDNAKNNVYLQMNSLKPEDTAVYYCRYLFGYIAMDYWGQGTQVTVSS	low polyreactivity
QVQLVESGGGLVQAGGSLRLSCAASGRTFRYNTMGWYRQAPGKERELVAITYRGGSTYADSVKGRFTISRDNAKNTVYLQMNSLKPEDTAVYYCAKVVNWCRGYGGTDHYYWGQGTQVTVSS	high polyreactivity
QVQLVESGGGLVQAGGSLRLSCAASGLTFSYYTMGWYRQAPGKERELVAAISKSAGSTYYADSVKGRFTISRDNAKNTVYLQMNSLKPEDTAVYYCAARFGYQYSYGYNYWGQGTQVTVSS	high polyreactivity
QVHLVESGGGLVQAGGSLRLSCAASGSTFPYYDMGWYRQAPGKERELVAAITYNGGNTYYADSVKGRFTISRDNAKNTVYLQMNSLKPEDTAVYYCAADGTLARLYYWATGDEDGYWGQGTQVTVSS	low polyreactivity
QVQLVESGGGLVQAGGSLRLSCAASGSILQDYAMGWYRQAPGKERELVAAISNSGDSTYYADSVKGRFTISRDNAKNTVYLQMNSLKPEDTAVYYCNAAVYPYALYSGGLDYDYWGQGTQVTVSS	low polyreactivity
QVQLVESGGGLLQAGGSLRLSCAASGRIFGWYAMGWYRQAPGKERELVAAISRGGTRTNYADSVKGRFTISRDNSKNTVYLQMNSLKPEDTAVYYCAAGGSWCQNGYWGQGTQVTVSS	high polyreactivity
QVQLEESGGGLVQAGGSLRLSCAASGRIFYPYAMGWYRQAPGKERELVAAISRSGGSTYYADSVKGRFTISRDNAKNTVYLQMNSLKPEDTAVYYCATGFYRAISHHGYDYWGQGTQVTVSS	low polyreactivity
QVQLVESGGGLVQAGGSLRLSCAASGRTFRNYAMGWSRPAPWKERELVATITSSGASTYYADSVKGRFTISRDNAKNTVYLQMNSLKPEDTAVYYCAARPYTGRYFLCYYYWGQGTQVTVSS	high polyreactivity
QDHLVESGGGLVEARGSLRLSCAASGFIFRGYAMGWYRQAPGKERELVAAINSGGSTNYADSVKGRFTISRDNAKNTVYLQMNSLKPEDSAVYYCAARWRSWRYKDDYWGQGSQVTVSS	high polyreactivity
QVQLVESGGGLVQAGGSLRLSCAASGIIFANYAMGWYRQAPGKERELVAAITYSGGGTYYADSVKGRFTISRDNAKNTVYLQMNSLKPEDTAVYYSAAEYFYRWYYFPYGYWGQGTQVTVSS	high polyreactivity
QVQLVESGGGLVQAGGSLRLSCAASGRIFTRYAMGWYRHAPGKERELVAAITASGGRTYYADSVKGRFTISRDNAKNTVYLQMNSLKPEDTAVYYCAATYHRYYETQDSYDYWGQGTQVTVSS	high polyreactivity

Sequence	polyreactivity (PSR sort gate)
QVQLQERGGGLVQAGGSLRMSCAASGSIFVSVTMGWYRQAPGKERELVASIGRGSTTNHADSVKGLFTISRDNAKNIVYLLMNSLKPEDTAVYYCAALESYGKYHGYWGQGTQVTVSS	low polyreactivity
QVQLVESGGGLVQAGGSLRLTCAASGSTYLNYAMGWYRQAPGKERELVAAITSGGRTYYADSVKGRFTISRDNAKNTVYLQMNSLKPEDTAVYYCAKVSYRYGLYDYWGQGTQVTVSS	high polyreactivity
QVQLVESVGGLVQSGGSLRLSCAASGFTFYRYGIGWYREAPGKERELVAAITSGGITYYADSVKGRFTISRDNAKNTVYLQLNSLKPEDTAVYYCNAVYPVAAIVRYDYWGQGTQVTVSS	high polyreactivity
QVQLVESGGGLVQAGGSLRLSCAASGRIFQGYAMGWYRQAPGKEREFVAVISTSGGRTSYADSVKGRFTISRDNAKNTVYLQMNSLKPEDTAVYYCNALYGRYGWSKNYYWGQGTQVTVSS	high polyreactivity
QVQLVESGGGLVQAGGSLRLSCAASGSIFHAYAMGWYRQAPGKERELDAAISYTGGTYYADSVKGRFTISRDNAKNTVYLQMNSLKPEDTAVYYCAIVTRYLHIGVPYVEFDYWGQGTQVTVSS	low polyreactivity
QVQLVESGGGLVQAGGSLRLSCAASGFTFKRYAMGWYRQAPGKEREFVAAITRGGGSTYYTDSVKGRFTISRDNAKNTVYLQMNSLKPEYTAVYYCAAVLYYYWRGYGPRSNRYDYWGQGTQVTVSS	high polyreactivity
QVQLVESGGGLVQAGGSLRLSCAASGIIFPYYAMGWYRPAPGKERELVAASTGRGTSTYADSVKGRFTISRDNAKNTVYLQMNSRKPEDTAVYYCAAVGWFADFLFSDINGYYWGQGTQVTVSS	low polyreactivity
QVQLVESGGGLVQAGGSLRLSCAASGRIFRYYAMGWYRQAPGKEREFVAGISWRGSSTYYADSVKGRFTISRDNAKNTVYLQMNSLKPEDTAVYYCNRDQSNIPVTGGRFYYWGQGTQVTVSS	high polyreactivity
QVQLVESGGGLVQAGGSLRLSCAASGRTFPVNAMGWYRQAPGKERELVAAITTNGGRTYYADSVKGRFTISRDNAKNTVYLQMNSLKPEDTAVYYCATRAYNDKRYGYWGQGTQVTVSS	high polyreactivity
QVQLVESGGGLVQAGGSLRLSCAASGIILSLYAMGWYRQAPGKERELVATIRFSGGSTYYADSVKGRFTISRDNAKNTVYLQMNSLKPEDTAVYYCNKHLATTFTVSRFDYWGQGTQVTVSS	low polyreactivity
QVQLVESRGGLVQAGGSLRLSCAASGRIFRYYAMGWYRQAPGTEREMVAAIRYRGASTYYADSVKGRFTISRDNAKNTVYLQMNSLKPEDTAVYYCAAYDYHPYRIVGASRSDYWGQGTQVTVSS	high polyreactivity
QVQLVESGGGLVQAGGSLRLSCAASGFTFRDNAMGRYRQAPGKERELVAAITWDGGSTYYADSVKGRFTISRDNEKNTVYLQMNSLKPEDTAVYYCAASRYYPRYFKRYYYWGQGTQVTVSS	high polyreactivity
QVQLVESAGGLVQAAASLRLSCADSGITFVVYTMGWYRQAPGKERELVASISISGDSTNYADSVKGRFTISRDNAKNTVYLQMNSLKPEDTAVYYCNAAFYHFQFPWIAYDYWGQGTQVTVSS	low polyreactivity
QVQLVESGGGLVQAGGSLRLSCAASGFTFFHNAMGWYRQAPGKERELVAAITSGGNTYYADSVKGRFTISRDNAKNTVYLQMNSLKPEDTAVYFCNAVISRVVRYEYWGQGTQVTVSS	high polyreactivity
QVHLVESGGGLDQAGGSLRLSSASSGRIIVRNAMGCYRQAPGKERELVADISSSGGRTYYADSVKGRFTISRDNAKNTVYLQMNSLKPEDTAVYYCAASSSNNEYDYWGQGTQETVSS	high polyreactivity
QVQLVESGAGLVQAGGSLRLSCAASGYIFGQNAMGWYRQAPGKERELVASISDGGSTYYADSVKGRFTISRDNAKNTVYLQMNSLKPEDTAVYYCAAGQDWGEKALGAWLFDYWGHGTQVTVSS	low polyreactivity
QVQLVESGGGLVQAGGSLRLSCAASGRTSYVYAMGWYRQAPGKERELVAAITSSGGSTYYADSVKGRFTISRDNAKNTVYLQMNSLKPEDTAVYYCAASRVRYSYGYPYYYWGQGTQVTVSS	high polyreactivity
QVQLVESGGGLVQAGGSLRLSCAASGRIFGRYAMGRYRQAPGKERELVAAISSTVGSTYYADSVKGRFTISRDNAKNTVDLQMNSLKPEDTAVYYCATVWYGSYYWATEYWGQGTQVTVSS	high polyreactivity
QVQLVESGGGLVQAGGSLRLSCSASGSTFYVYAMGWYRQAPGKERELVAAIDWSDGSTYYADSVKGRFTISRDNAKNTVYLQMNSLKPEDTAVYYCAADVGGGVDYVDYYYWGQGTQVTVSS	high polyreactivity
QVQLVESGGGLVQAGGSLSLSSAASGRTFTFNTMGWYRQAPGKERELVAAIDGDGTTNYADSVKGRFTISRDNAKYTVYLQMNSLKPEDTAVYYCAADFLYSFWYEPTFDYWGQGTQVTVSS	low polyreactivity
QVQLVESGGGLVQAGGSLLLSCAASGSTYKYAMGWYRQAPGKERELVAVISSGGSTDDADSVKGRFTISRDNAKNTVYLQMNSLKPEDTAVYYCAADSGFVSIGSYYWGLGTQVTVSS	low polyreactivity
